The target of the test is insulin-like growth factor receptor type 1 (IGF1R) (mouse (endogenous in HEI-OC1)) (UniProt Q60751).
Sequence of UniProt Q60751 (Q60751 31-1373): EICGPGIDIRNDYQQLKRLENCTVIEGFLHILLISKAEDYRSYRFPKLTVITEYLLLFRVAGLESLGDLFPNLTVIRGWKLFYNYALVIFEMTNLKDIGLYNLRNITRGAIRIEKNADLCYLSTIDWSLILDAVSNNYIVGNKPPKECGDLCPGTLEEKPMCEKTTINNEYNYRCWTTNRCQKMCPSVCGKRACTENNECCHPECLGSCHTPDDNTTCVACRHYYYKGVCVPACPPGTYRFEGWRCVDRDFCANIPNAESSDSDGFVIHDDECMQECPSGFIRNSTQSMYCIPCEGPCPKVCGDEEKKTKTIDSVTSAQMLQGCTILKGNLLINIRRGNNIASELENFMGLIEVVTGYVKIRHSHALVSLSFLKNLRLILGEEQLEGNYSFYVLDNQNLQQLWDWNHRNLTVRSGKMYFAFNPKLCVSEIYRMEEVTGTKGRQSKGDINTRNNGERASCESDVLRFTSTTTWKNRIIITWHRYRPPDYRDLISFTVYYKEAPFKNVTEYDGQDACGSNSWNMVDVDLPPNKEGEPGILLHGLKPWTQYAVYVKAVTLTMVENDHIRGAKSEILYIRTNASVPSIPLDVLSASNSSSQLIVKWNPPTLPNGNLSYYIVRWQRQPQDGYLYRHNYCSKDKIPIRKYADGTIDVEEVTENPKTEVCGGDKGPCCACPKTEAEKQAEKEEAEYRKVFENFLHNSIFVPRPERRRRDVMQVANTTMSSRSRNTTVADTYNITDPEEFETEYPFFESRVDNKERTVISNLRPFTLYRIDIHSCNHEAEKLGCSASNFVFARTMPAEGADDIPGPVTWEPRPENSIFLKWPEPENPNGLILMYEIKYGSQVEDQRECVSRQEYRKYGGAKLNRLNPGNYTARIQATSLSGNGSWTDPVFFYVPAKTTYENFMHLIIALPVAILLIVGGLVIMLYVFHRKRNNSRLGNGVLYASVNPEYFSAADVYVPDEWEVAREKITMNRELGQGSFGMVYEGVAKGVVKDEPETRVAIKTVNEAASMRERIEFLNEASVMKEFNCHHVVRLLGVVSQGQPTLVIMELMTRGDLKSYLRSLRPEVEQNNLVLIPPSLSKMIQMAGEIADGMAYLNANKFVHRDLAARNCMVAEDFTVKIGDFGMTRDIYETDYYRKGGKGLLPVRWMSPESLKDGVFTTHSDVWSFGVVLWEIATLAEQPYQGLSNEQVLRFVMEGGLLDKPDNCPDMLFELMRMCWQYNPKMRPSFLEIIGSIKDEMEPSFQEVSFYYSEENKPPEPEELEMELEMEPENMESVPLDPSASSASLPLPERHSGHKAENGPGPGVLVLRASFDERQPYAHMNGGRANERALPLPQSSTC

In turn, “human recombinant IGF-1 (insulin-like growth factor 1) (from UniProt P05019 49-118) (ligand)” returned a p-IGF1Rβ (Tyr1135) level by Western blot in HEI-OC1 progenitor cells treated with IGF-1 (10 nM), sustained for 30 min, versus untreated control of 11 fold and a p-IGF1Rβ (Tyr1135) level by Western blot in differentiated HEI-OC1 cells treated with IGF-1 (10 nM) for 5 min, versus untreated control of 3.5 fold.

Values taken from article PMC9952701.
